Data reported in patent US20200317768A1 (published 2020).

T1: cynomolgus monkey FcγRIIa1 extracellular domain, C-terminal His-tag (cynomolgus monkey)
T1 construct: also called cyno FcγRIIa1; cynoFcgRIIa1; not shown: His-tag added to C-terminus
T1 chain: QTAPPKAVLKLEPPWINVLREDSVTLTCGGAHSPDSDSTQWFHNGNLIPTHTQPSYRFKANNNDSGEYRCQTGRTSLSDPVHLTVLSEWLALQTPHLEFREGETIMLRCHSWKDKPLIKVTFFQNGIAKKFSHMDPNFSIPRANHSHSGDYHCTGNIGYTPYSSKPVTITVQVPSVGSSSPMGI

T2: cynomolgus monkey FcγRIIa2 extracellular domain, C-terminal His-tag (cynomolgus monkey)
T2 construct: also called cyno FcγRIIa2; cynoFcgRIIa2; not shown: His-tag added to C-terminus
T2 chain: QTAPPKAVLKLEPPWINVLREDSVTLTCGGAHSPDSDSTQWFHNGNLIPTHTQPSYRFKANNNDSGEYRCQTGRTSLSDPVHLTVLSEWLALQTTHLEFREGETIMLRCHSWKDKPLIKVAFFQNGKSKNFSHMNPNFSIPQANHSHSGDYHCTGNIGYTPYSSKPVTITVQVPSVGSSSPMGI

T3: cynomolgus monkey FcγRIIa3 extracellular domain, C-terminal His-tag (cynomolgus monkey)
T3 construct: also called cyno FcγRIIa3; cynoFcgRIIa3; not shown: His-tag added to C-terminus
T3 chain: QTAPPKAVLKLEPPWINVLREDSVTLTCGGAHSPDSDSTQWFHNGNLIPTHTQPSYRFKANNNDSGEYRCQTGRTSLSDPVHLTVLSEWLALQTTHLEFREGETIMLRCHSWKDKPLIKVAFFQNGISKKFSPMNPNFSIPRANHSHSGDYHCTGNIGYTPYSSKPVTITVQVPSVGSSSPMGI

T4: cynomolgus monkey FcγRIIb extracellular domain, C-terminal His-tag (cynomolgus monkey)
T4 construct: also called cyno FcγRIIb; cynoFcγRIIb; not shown: His-tag added to C-terminus
T4 chain: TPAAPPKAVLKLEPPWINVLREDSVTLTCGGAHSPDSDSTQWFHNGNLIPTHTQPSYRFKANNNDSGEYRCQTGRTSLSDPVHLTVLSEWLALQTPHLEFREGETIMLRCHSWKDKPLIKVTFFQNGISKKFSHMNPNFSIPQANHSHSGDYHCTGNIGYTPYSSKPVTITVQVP

T5: human FcγRIIaH extracellular domain, C-terminal His-tag (human, UniProt P12318 34-217)
T5 construct: also called human FcγRIIa (type H); FcgRIIaH; not shown: His-tag added to C-terminus
T5 sequence: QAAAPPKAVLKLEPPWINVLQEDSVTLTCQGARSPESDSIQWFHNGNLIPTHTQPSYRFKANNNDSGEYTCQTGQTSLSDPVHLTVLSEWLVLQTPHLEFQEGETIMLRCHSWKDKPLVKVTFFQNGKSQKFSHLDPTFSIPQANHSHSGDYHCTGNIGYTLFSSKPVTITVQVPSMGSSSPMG

T6: human FcγRIIaR extracellular domain, C-terminal His-tag (human, UniProt P12318 34-217)
T6 construct: also called human FcγRIIa (type R); FcgRIIaR; not shown: His-tag added to C-terminus
T6 chain: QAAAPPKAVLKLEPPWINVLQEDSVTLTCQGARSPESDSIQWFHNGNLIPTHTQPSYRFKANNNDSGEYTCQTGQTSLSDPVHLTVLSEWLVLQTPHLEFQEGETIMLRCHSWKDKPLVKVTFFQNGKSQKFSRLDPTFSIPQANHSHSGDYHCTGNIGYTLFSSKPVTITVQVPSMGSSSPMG

T7: human FcγRIIb extracellular domain, C-terminal His-tag (human, UniProt P31994 43-217)
T7 construct: also called humanFcgRIIb; not shown: His-tag added to C-terminus
T7 sequence: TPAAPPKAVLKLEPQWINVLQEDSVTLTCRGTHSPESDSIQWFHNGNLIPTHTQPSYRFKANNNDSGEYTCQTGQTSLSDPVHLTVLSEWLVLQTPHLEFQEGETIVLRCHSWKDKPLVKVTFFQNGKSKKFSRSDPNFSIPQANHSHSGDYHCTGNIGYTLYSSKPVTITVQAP


Assays:
Assay in all cases: SPR (BIACORE); KD of SG1 / KD of variant;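 further: relative to parent M103205H795-SG1 carrying the SG1 human heavy chain constant region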
[1] = biological target: T1, cynomolgus monkey FcγRIIa1 …
Method: (§1) The kinetic analysis of interactions between these antibodies and FcγR was carried out using BIACORE® T200 or BIACORE® 4000 (GE Healthcare). HBS-EP+ (GE Healthcare) was used as the running buffer, and the measurement temperature was set to 25° C. A chip produced by immobilizing Protein A. Protein A/G or mouse anti-human IgG kappa light chain (BD Biosciences) onto a Series S Sensor Chip CM4 or CM5 (GE Healthcare) by the amine-coupling method was used. […] After the measurement, the antibody captured on the chip was washed off by allowing reaction with 10 mM glycine-HCl, pH1.5 and 25 mM NaOH so that the chip was regenerated and used repeatedly. The sensorgrams obtained as measurement results were analyzed by the 1:1 Langmuir binding model using the BIACORE® Evaluation Software to calculate the binding rate constant ka (L/mol/s) and dissociation rate constant kd (l/s), and the dissociation constant KD (mol/L) was calculated from these values. […] Regarding such interactions, KD values were calculated using the following 1:1 binding model described in BIACORE® T100 Software Handbook BR1006-48 Edition AE.
(§2) The behavior of interacting molecules according to the 1:1 binding model on BIACORE® can be described by Equation 1: Req=C·R max/(KD+C)+RI, wherein, Req is a plot of steady-state binding levels to analyte concentration. C is concentration, RI is bulk refractive index contribution in the sample, and Rmax is analyte binding capacity of the surface. When this equation is rearranged, KD can be expressed as Equation 2: KD=C·Rmax/(Req−RI)−C. KD can be calculated by substituting the values of Rmax, RI, and C into Equation 1 or Equation 2. From the current measurement conditions, RI=0, C=2 μmol/L can be used.

[2] = biological target: T2, cynomolgus monkey FcγRIIa2 …
Method: as §1, §2

[3] = biological target: T3, cynomolgus monkey FcγRIIa3 …
Method: as §1, §2

[4] = biological target: T4, cynomolgus monkey FcγRIIb extracellular …
Method: as §1, §2

[5] = biological target: T8, cynomolgus monkey FcγRIIIaS extracellular domain, C-terminal His-tag (cynomolgus monkey, UniProt A3RFZ7 21-206 (rhesus entry))
T8 construct: also called cyno FcγRIIIaS; cynoFcγRIIIaS; not shown: His-tag added to C-terminus
Method: as §1, §2

[6] = biological target: T5, human FcγRIIaH extracellular domain, …
Method: as §1, §2

[7] = biological target: T6, human FcγRIIaR extracellular domain, …
Method: as §1, §2

[8] = biological target: T7, human FcγRIIb extracellular domain, …
Method: as §1, §2

[9] = biological target: T9, human FcγRIIIaV extracellular domain, C-terminal His-tag (human, UniProt P08637 17-208)
T9 construct: also called FcgRIIIaV; not shown: His-tag added to C-terminus
Method: as §1, §2

T8 sequence (A3RFZ7 21-206): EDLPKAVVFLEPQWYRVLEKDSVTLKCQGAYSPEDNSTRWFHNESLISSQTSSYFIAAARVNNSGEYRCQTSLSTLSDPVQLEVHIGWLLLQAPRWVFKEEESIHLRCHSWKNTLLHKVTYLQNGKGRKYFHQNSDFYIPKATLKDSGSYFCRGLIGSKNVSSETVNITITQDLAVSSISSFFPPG
T9 sequence (P08637 17-208 F176V): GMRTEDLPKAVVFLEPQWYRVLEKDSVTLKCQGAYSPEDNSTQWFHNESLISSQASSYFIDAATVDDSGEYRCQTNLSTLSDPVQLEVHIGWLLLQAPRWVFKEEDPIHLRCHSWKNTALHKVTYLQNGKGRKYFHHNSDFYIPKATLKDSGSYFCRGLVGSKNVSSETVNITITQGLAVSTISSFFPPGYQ

Binder	KD fold (SG1 = 1) [1] [fold]	KD fold (SG1 = 1) [2] [fold]	KD fold (SG1 = 1) [3] [fold]	KD fold (SG1 = 1) [4] [fold]	KD fold (SG1 = 1) [5] [fold]	KD fold (SG1 = 1) [6] [fold]	KD fold (SG1 = 1) [7] [fold]	KD fold (SG1 = 1) [8] [fold]	KD fold (SG1 = 1) [9] [fold]
M103205H795-MY535 / M103202L889-SK1 (antibody, human IgG1, kappa) heavy: QVTLKESGPVLVKPTETLTLTCTVSGIDLSHDDISWVRQAPGKGLEWVGIISYAGSTYYASWAKGRLTISKDTSKNQVVLTMTNMDPVDTATYYCARGVPAYSHGGDLWGQGTLVTVSSASTKGPSVFPLAPSSKSTSGGTAALGCLVKDYFPEPVTVSWNSGALTSGVHTFPAVLQSSGLYSLSSVVTVPSSSLGTQTYICNVNHKPSNTKVDKKVEPKSCDKTHTCPPCPGPEWLTGPSVFLFPPKPKDTLMISRTPEVTCVVVDVSDEDPEVKFNWYVDGVEVHNAKTKPREEQYNSTYRVVSVLTVLHQDWLNGKEYKCKVSNKALPKPIEKTISKAKGQPREPQVYTLPPSREEMTKNQVSLTCLVKGFYPSDIAVEWESNGQPENNYKTTPPVLDSDGSFFLYSKLTVDKSRWQQGNVFSCSVMHEALHNHYTQKSLSLSP light: DIVMTQSPATLSLSPGERATLSCTSSQSVYHANWLSWFQQKPGQPPKLLIYWASTLAYGVPSRFSGSGSGTDFTLTISSLQPEDAATYYCAGGYGGGRYAFGQGTKVEIKRTVAAPSVFIFPPSDEQLKSGTASVVCLLNNFYPREAKVQWKVDNALQSGNSQESVTEQDSKDSTYSLSSTLTLSKADYEKHKVYACEVTHQGLSSPVTKSFNRGEC	2.1	3.6	5.7	4.4	0.17	1.5	1.7	2.4	0.16
M103205H795-MY536 / M103202L889-SK1 (antibody, human IgG1, kappa) heavy: QVTLKESGPVLVKPTETLTLTCTVSGIDLSHDDISWVRQAPGKGLEWVGIISYAGSTYYASWAKGRLTISKDTSKNQVVLTMTNMDPVDTATYYCARGVPAYSHGGDLWGQGTLVTVSSASTKGPSVFPLAPSSKSTSGGTAALGCLVKDYFPEPVTVSWNSGALTSGVHTFPAVLQSSGLYSLSSVVTVPSSSLGTQTYICNVNHKPSNTKVDKKVEPKSCDKTHTCPPCPGPEWLTGPVVFLFPPKPKDTLMISRTPEVTCVVVDVSDEDPEVKFNWYVDGVEVHNAKTKPREEQYNSTYRVVSVLTVLHQDWLNGKEYKCKVSNKALPKPIEKTISKAKGQPREPQVYTLPPSREEMTKNQVSLTCLVKGFYPSDIAVEWESNGQPENNYKTTPPVLDSDGSFFLYSKLTVDKSRWQQGNVFSCSVMHEALHNHYTQKSLSLSP light: DIVMTQSPATLSLSPGERATLSCTSSQSVYHANWLSWFQQKPGQPPKLLIYWASTLAYGVPSRFSGSGSGTDFTLTISSLQPEDAATYYCAGGYGGGRYAFGQGTKVEIKRTVAAPSVFIFPPSDEQLKSGTASVVCLLNNFYPREAKVQWKVDNALQSGNSQESVTEQDSKDSTYSLSSTLTLSKADYEKHKVYACEVTHQGLSSPVTKSFNRGEC	2.7	4.6	17.3	4.5	0.23	2.4	5	4.6	0.3
M103205H795-MY537 / M103202L889-SK1 (antibody, human IgG1, kappa) heavy: QVTLKESGPVLVKPTETLTLTCTVSGIDLSHDDISWVRQAPGKGLEWVGIISYAGSTYYASWAKGRLTISKDTSKNQVVLTMTNMDPVDTATYYCARGVPAYSHGGDLWGQGTLVTVSSASTKGPSVFPLAPSSKSTSGGTAALGCLVKDYFPEPVTVSWNSGALTSGVHTFPAVLQSSGLYSLSSVVTVPSSSLGTQTYICNVNHKPSNTKVDKKVEPKSCDKTHTCPPCPGPEWLTGPVVFLFPPKPKDTLMISRTPEVTCVVVDVSDEDPEVKFNWYVDGVEVHNAKTKPREELYNSTYRVVSVLTVLHQDWLNGKEYKCKVSNKALPKPIEKTISKAKGQPREPQVYTLPPSREEMTKNQVSLTCLVKGFYPSDIAVEWESNGQPENNYKTTPPVLDSDGSFFLYSKLTVDKSRWQQGNVFSCSVMHEALHNHYTQKSLSLSP light: DIVMTQSPATLSLSPGERATLSCTSSQSVYHANWLSWFQQKPGQPPKLLIYWASTLAYGVPSRFSGSGSGTDFTLTISSLQPEDAATYYCAGGYGGGRYAFGQGTKVEIKRTVAAPSVFIFPPSDEQLKSGTASVVCLLNNFYPREAKVQWKVDNALQSGNSQESVTEQDSKDSTYSLSSTLTLSKADYEKHKVYACEVTHQGLSSPVTKSFNRGEC	2.7	4.6	12.1	3.6	0.24	2.5	3	4.6	0.25
